Source: patent US20050124036

Tested on: plasminogen according to the present invention (20 mg/ml, Example 8)

Substance: Endoproteinase Asp-N
- plasmin activity after activation: 4.3 U/mg

Substance: Protease VIII
- plasmin activity after activation: 9 U/mg

Substance: Elastase
- plasmin activity after activation: 0.63 U/mg

Substance: Proteinase A
- plasmin activity after activation: 0.02 U/mg

Substance: Trypsin
- plasmin activity after activation: 11 kU/mg

Substance: Endoproteinase Glu-C
- plasmin activity after activation: 0.6 U/mg

Substance: Protease XIII
- plasmin activity after activation: 0.01 U/mg

Substance: Protease XVIII
- plasmin activity after activation: 0.7 U/mg

Substance: Thrombin
- plasmin activity after activation: 83.0 U/mg

Substance: Ficin
- plasmin activity after activation: 0.01 U/mg

Substance: Protease from S. griseus
- plasmin activity after activation: 613.3 U/mg
